Data: patent publication EP4365197A1 (Innobation Bio Co., Ltd., dated 2024)
Positions count from the first letter of the chain named.

B1: Hu3A5 (V11) antibody (antibody, V domains shown)
VH: EVQLVQSGSELKKPGASVKVSCKASGYTFTSYWMHWMRQAPGQGLEWIGVIDPSDSYTSYNQGFTGRFVLSVDTSVSTAYLQISSLKAEDTAVYYCARGGKRAMDYWGQGTTVTVSS
VL: DVVMTQSPDSLAVSLGERATINCKSSQSLVHSNGNTYLHWYQQKPGQPPKLLIYKVSNRFSGVPDRFSGSGSGTDFTLTISSLQAEDVAVYFCSQSTHVPFTFGGGTKLEIK
notes: Humanized 3A5
B2: Hu3A5 (V15) antibody (antibody, V domains shown)
VH: B1 VH with E1Q, H35N, M37V, I48M, L70F
VL: B1 VL
notes: Humanized 3A5
B3: Hu3A5 (V12) antibody (antibody, V domains shown)
VH: B1 VH
VL: B1 VL with F92Y
notes: Humanized 3A5
B4: Hu3A5 (V16) antibody (antibody, V domains shown)
VH: B1 VH with E1Q, H35N, M37V, I48M, L70F
VL: B1 VL with F92Y
notes: Humanized 3A5
B5: Hu3A5 (V1) antibody (antibody, V domains shown)
VH: EVQLVQSGAEVKKPGASVKVSCKASGYTFTSYWMHWMRQAPGQGLEWIGVIDPSDSYTSYNQKFQGRVTLTVDTSTSTAYMELSSLRSEDTAVYYCARGGKRAMDYWGQGTTVTVSS
VL: DVVMTQSPLSLPVTLGQPASISCRSSQSLVHSNGNTYLHWFQQRPGQSPRLLIYKVSNRFSGVPDRFSGSGSGTDFTLKISRVEAEDVGVYFCSQSTHVPFTFGGGTKLEIK
notes: Humanized 3A5
B6: Hu3A5 (V3) antibody (antibody, V domains shown)
VH: B5 VH
VL: B1 VL
notes: Humanized 3A5
B7: Hu3A5 (V10) antibody (antibody, V domains shown)
VH: B1 VH
VL: B5 VL with F92Y
B8: Hu3A5 (V9) antibody (antibody, V domains shown)
VH: B1 VH
VL: B5 VL
notes: Humanized 3A5
B9: Hu3A5 (V13) antibody (antibody, V domains shown)
VH: B1 VH with E1Q, H35N, M37V, I48M, L70F
VL: B5 VL
notes: Humanized 3A5
B10: Hu3A5 (V8) antibody (antibody, V domains shown)
VH: B5 VH with E1Q, M37V, I48M, L70M
VL: B1 VL with F92Y
notes: Humanized 3A5
B11: Hu3A5 (V2) antibody (antibody, V domains shown)
VH: B5 VH
VL: B5 VL with F92Y
notes: Humanized 3A5
B12: Hu3A5 (V7) antibody (antibody, V domains shown)
VH: B5 VH with E1Q, M37V, I48M, L70M
VL: B1 VL
notes: Humanized 3A5
B13: Hu3A5 (V6) antibody (antibody, V domains shown)
VH: B5 VH with E1Q, M37V, I48M, L70M
VL: B5 VL with F92Y
notes: Humanized 3A5
B14: Hu3A5 (V5) antibody (antibody, V domains shown)
VH: B5 VH with E1Q, M37V, I48M, L70M
VL: B5 VL
notes: Humanized 3A5
B15: Hu3A5 (V14) antibody (antibody, V domains shown)
VH: B1 VH with E1Q, H35N, M37V, I48M, L70F
VL: B5 VL with F92Y
notes: Humanized 3A5
B16: Hu3A5 (V4) antibody (antibody, V domains shown)
VH: B5 VH
VL: B1 VL with F92Y
notes: Humanized 3A5

The molecules below were run against CD47 protein (Acrobiosystems, cat#CD7-HA2E9) (UniProt Q08722) (assay: ELISA, CD47 protein coated 100 ng/well, 0.8 µg antibody per well).
Chain of CD47 protein (Acrobiosystems, cat#CD7-HA2E9) (Q08722 19-139 limits assumed): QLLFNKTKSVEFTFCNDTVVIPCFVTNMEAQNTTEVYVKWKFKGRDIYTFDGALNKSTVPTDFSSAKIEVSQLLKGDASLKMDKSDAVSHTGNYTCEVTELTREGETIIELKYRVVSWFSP

Row | OD450 measurements [OD450] | Molecule
1 | 2.81 | B1
2 | 0.111 | B2
3 | 2.85 | B3
4 | 0.106 | B4
5 | 2.58 | B5
6 | 2.54 | B6
7 | 2.81 | B7
8 | 2.65 | B8
9 | 0.0966 | B9
10 | 2.45 | B10
11 | 2.69 | B11
12 | 2.67 | B12
13 | 2.62 | B13
14 | 2.57 | B14
15 | 0.147 | B15
16 | 2.74 | B16

Each molecule was assayed against CD47 on the CD47-overexpressing breast cancer cell line MCF-7 (UniProt Q08722) (assay: flow cytometry on MCF-7 cells, secondary antibody alone (background control)).
Chain of CD47 on the CD47-overexpressing breast cancer cell line MCF-7 (UniProt Q08722) (Q08722 19-323 limits assumed): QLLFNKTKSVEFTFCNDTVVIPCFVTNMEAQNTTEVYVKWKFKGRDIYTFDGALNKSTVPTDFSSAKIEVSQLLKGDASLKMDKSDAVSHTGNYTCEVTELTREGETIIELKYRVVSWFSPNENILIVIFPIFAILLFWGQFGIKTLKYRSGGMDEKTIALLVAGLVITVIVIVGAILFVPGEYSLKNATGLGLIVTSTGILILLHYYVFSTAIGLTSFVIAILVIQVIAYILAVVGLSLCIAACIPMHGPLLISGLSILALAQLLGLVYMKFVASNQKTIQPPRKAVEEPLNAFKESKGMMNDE

Row | Mean (fluorescence) | Median (fluorescence) | Molecule
17 | 80 | 73.9 | PE-conjugated goat anti-mouse IgG antibody (Biolegend Inc., cat# 405307)

Each molecule was assayed against T1, CD47 on the CD47-overexpressing breast cancer cell line MCF-7 (UniProt Q08722 19-323, limits assumed) (assay: flow cytometry on MCF-7 cells, 1 µg antibody).
T1 construct: whole, on cells; Endogenous CD47 on MCF-7 cells; The positive control used on these cells is an anti-human CD47 antibody; also called CD47 overexpressing tumor cells (MCF-7); MCF-7 cells expressing CD47
T1 sequence (Q08722 19-323 limits assumed): as above

Row | binding result | Molecule
18 | binds | B1
19 | binds | B2
20 | binds | B3
21 | binds | B4
22 | binds | B5
23 | binds | B6
24 | binds | B8
25 | binds | B9
26 | binds | B10
27 | binds | B11
28 | binds | B12
29 | binds | B13
30 | binds | B14
31 | binds | B15
32 | binds | B16
